Reference: PMC5306358

Biological target: tissue factor (TF), endogenous on human cells (human (endogenous in HMVEC, HUVEC, HAEC, MDA-MB-231)) (UniProt P13726)
Chain of UniProt P13726 (P13726 33-295): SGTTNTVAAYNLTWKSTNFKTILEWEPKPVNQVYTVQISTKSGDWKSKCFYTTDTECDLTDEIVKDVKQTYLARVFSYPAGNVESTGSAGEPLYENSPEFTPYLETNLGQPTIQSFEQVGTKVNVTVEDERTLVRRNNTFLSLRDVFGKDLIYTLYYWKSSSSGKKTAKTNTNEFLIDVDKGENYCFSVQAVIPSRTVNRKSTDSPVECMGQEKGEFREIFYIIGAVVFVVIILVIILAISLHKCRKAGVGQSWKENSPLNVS

mfVII/NLS-SnCe6 conjugate (ligand) was tested, and the clonogenic assay of angiogenic HMVEC after fVII-tPDT with fVII/NLS-SnCe6 (0.0, 0.5, 1 and 2 μM SnCe6, 635 nm laser light at 36 J/cm^2); EC50 of SnCe6 for killing was 31 nM.
